# Test results: patent US20210309702A1
# Biological target: signal regulatory protein a (SIRPa) (mouse) (UniProt P97797)
# Assay: cell-based or functional assay
# Sequence of UniProt P97797 (P97797 32-513): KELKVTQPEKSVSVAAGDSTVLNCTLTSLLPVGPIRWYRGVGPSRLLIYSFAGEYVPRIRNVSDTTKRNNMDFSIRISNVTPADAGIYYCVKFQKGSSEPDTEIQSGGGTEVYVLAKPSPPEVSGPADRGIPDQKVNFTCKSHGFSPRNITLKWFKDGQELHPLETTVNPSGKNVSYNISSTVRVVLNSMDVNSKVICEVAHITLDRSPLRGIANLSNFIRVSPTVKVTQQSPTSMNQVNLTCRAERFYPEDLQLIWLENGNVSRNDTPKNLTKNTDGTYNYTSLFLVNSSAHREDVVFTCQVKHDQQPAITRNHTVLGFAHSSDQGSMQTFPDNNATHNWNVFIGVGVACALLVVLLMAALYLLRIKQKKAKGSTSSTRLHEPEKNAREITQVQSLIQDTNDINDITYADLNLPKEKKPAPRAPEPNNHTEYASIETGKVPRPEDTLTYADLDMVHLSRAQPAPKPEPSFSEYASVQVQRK
substance,measurement,value
Myc and GFP11-tagged mouse CD47 (CD47-Myc-GFP11) (from UniProt Q61735 19-303),Gectosomes depleted by RAW 264.7 macrophages after 3 h (BlaM activity remaining in the media),10 % depleted
same,Gectosomes depleted by RAW 264.7 macrophages after 6 h (BlaM activity remaining in the media),50 % depleted
